In patent publication US20130316376A1 (SPIBER TECHNOLOGIES, published 2013):

B1: His6AbdQGRep4CT (designed binder)
chain: MGSSGHHHHHHMLAEAKVLANRELDKYGVSDYYKNLINNAKTVEGVKALIDEILAALPLEALFQGPNSGQGGYGGLGQGGYGQGAGSSAAAAAAAAAAAAGGQGGQGQGGYGQGSGGSAAAAAAAAAAAAAAAGRGQGGYGQGSGGNAAAAAAAAAAAAAAAGQGGQGGYGRQSQGAGSAAAAAAAAAAAAAAGSGQGGYGGQGQGGYGQSSASASAAASAASTVANSVSRLSSPSAVSRVSSAVSSLVSNGQVNMAALPNIISNISSSVSASAPGASGCEVIVQALLEVITALVQIVSSSSVGYINPSAVNQITNVVANAMAQVMG
notes: tested as films and fibers; also called Abd-Rep4CT; HisAbdQG4RepCT
B2: Rep4CT (Protease 3C cleavage product of His6ZQGRep4CT) (other)
chain: GQGGYGGLGQGGYGQGAGSSAAAAAAAAAAAAGGQGGQGQGGYGQGSGGSAAAAAAAAAAAAAAAGRGQGGYGQGSGGNAAAAAAAAAAAAAAAGQGGQGGYGRQSQGAGSAAAAAAAAAAAAAAGSGQGGYGGQGQGGYGQSSASASAAASAASTVANSVSRLSSPSAVSRVSSAVSSLVSNGQVNMAALPNIISNISSSVSASAPGASGCEVIVQALLEVITALVQIVSSSSVGYINPSAVNQITNVVANAMAQVMG
notes: made by cleaving His6ZQGRep4CT; also called GP-Rep4CT

Experiments:
[1] = molecular target: T1, albumin from human blood plasma (human, UniProt P02768 25-609); test: films incubated with human blood plasma, low pH elution, non-reducing SDS-PAGE
T1 construct: mature; Native plasma protein; also called human albumin

[2] = molecular target: T2, albumin from rabbit serum (rabbit, UniProt P49065 25-608); test: fibers incubated with rabbit serum, low pH elution, non-reducing SDS-PAGE
T2 construct: mature; Native serum protein; the form follows from the source (serum); also called albumin (~70 kDa)
T2 sequence (P49065 25-608): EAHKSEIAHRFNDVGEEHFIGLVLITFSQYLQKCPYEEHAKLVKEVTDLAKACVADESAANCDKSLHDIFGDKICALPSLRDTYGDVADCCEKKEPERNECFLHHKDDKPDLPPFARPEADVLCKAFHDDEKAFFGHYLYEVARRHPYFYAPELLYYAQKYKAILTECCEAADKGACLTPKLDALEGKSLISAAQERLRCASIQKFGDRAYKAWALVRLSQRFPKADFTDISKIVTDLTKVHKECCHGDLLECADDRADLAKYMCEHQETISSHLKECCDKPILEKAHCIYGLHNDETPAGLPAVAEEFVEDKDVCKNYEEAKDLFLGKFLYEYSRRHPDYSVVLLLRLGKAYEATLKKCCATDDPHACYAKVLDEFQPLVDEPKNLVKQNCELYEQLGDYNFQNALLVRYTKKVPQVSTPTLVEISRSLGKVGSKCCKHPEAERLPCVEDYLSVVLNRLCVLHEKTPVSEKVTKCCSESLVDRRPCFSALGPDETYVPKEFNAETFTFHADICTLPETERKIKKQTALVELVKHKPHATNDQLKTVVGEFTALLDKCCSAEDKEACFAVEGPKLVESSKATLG

Row | Binder | binding result [1] | binding result [2]
1 | B1 | binds | 
2 | B2 |  | binds
